Changes are numbered by the printed parent chain. Like-named read-outs stand apart in the source and are kept apart here.
Key:
human IL-11 [1] = target: T1, human IL-11 (human, UniProt P20809 22-199, limits assumed); assay: ELISA, IL-11 coated, goat anti-human IgG Fab HRP detection
T1 construct: also called IL-11 antigen; IL-11 protein
T1 sequence (looked up): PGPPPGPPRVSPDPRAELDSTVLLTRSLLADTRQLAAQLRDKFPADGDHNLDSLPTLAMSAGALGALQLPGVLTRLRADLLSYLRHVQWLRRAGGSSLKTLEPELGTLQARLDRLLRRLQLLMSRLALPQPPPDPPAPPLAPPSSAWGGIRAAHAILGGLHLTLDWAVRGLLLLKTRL

IL-11-Fc antigen = target: T2, IL-11-Fc antigen (human, UniProt P20809 22-199, limits assumed); assay: competition ELISA: IL-11-Fc coated, competitor IL-11RA-Fc (IgG4 type) at 0.5 ug/mL, anti-human IgG4-HRP detection
T2 construct: The construct is not described; not shown: Fc part
T2 sequence (looked up): T1 sequence (looked up)

IL-11-mFc ligand protein [2] = target: T3, IL-11-mFc ligand protein (human, UniProt P20809 22-199); assay: flow cytometry: inhibition of IL-11-mFc binding to IL-11RA on BaF/3-IL-11RA cells, goat anti-mouse IgG-FITC detection
T3 construct: The construct is not described; also called IL-11 ligand protein; not shown: mFc part (detected with goat anti-mouse IgG)
T3 sequence (looked up): T1 sequence (looked up)

human IL-11 [3] = target: T1, human IL-11; assay: ELISA, IL-11 coated, goat anti-mouse IgG-HRP detection
IL-11-mFc ligand protein [4] = target: T3, IL-11-mFc ligand protein; assay: cell-based or functional assay
human IL-11 [5] = target: T1, human IL-11; assay: cell-based or functional assay
IL-11-mFc ligand protein [6] = target: T3, IL-11-mFc ligand protein; assay: cell-based or functional assay; remark: listed apart in the source
IL-11-mFc ligand protein [7] = target: T3, IL-11-mFc ligand protein; assay: flow cytometry: inhibition of IL-11-mFc binding to IL-11RA on BaF/3-IL-11RA cells, goat anti-mouse IgG-FITC detection; remark: listed apart in the source
IL-11-mFc ligand protein [8] = target: T3, IL-11-mFc ligand protein; assay: flow cytometry: inhibition of IL-11-mFc binding to GP130 on BaF/3-GP130 cells, goat anti-mouse IgG-FITC detection
cynomolgus monkey IL-11 = target: T4, cynomolgus monkey IL-11 (cynomolgus monkey, UniProt P20808 22-199, limits assumed); assay: ELISA, cynomolgus monkey IL-11 coated, goat anti-human IgG Fab HRP detection
T4 construct: Bought reagent; also called IL-11 (Cynomolgus)
T4 sequence (looked up): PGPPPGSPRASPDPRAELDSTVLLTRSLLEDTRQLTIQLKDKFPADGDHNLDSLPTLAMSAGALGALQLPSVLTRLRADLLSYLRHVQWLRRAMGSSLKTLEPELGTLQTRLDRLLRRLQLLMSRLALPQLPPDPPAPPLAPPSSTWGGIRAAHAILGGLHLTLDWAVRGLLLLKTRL

mouse IL-11 = target: T5, mouse IL-11 (mouse, UniProt P47873 22-199, limits assumed); assay: ELISA, mouse IL-11 coated, goat anti-human IgG Fab HRP detection
T5 construct: Bought reagent; also called IL-11 (Mouse)
T5 sequence (looked up): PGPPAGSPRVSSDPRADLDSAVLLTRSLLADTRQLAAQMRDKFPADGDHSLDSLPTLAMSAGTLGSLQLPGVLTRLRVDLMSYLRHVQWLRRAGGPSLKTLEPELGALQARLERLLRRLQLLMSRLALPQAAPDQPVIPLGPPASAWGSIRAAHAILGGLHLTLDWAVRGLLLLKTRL

rat IL-11 = target: T6, rat IL-11 (rat, UniProt Q99MF5 22-199, limits assumed); assay: ELISA, rat IL-11 coated, goat anti-human IgG Fab HRP detection
T6 construct: Bought reagent; also called IL-11 (Rat)
T6 sequence (looked up): T5 sequence (looked up) with S50N, L84F, G94A, V137A, I138V

human IL-11 [9] = target: T1, human IL-11; assay: ELISA, human IL-11 coated, goat anti-human IgG Fab HRP detection

B1: chimeric antibody CA-I (antibody, human IgG1, kappa, L234A L235A)
heavy: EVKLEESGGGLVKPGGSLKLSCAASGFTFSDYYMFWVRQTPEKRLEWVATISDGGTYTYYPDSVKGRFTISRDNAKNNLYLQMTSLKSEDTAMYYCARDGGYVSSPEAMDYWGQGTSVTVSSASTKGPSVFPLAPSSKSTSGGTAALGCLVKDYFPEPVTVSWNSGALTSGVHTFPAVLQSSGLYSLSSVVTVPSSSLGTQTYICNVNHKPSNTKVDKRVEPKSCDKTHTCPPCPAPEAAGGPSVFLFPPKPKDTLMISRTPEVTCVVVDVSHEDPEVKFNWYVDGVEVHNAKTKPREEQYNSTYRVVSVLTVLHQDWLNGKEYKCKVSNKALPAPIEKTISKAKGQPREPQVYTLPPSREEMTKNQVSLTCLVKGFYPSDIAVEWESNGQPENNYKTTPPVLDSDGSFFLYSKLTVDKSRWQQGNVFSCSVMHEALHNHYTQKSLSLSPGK
light: DIVLTQSTSSLSASLGDRVTISCRASQDISNYLNWYQQKPDGTVKLLIYYTSRLHSGVPSRFSGSGSGTDYSLTISNLEQEDIATYFCQQGNTLPPTFGGGTKLEIKRTVAAPSVFIFPPSDEQLKSGTASVVCLLNNFYPREAKVQWKVDNALQSGNSQESVTEQDSKDSTYSLSSTLTLSKADYEKHKVYACEVTHQGLSSPVTKSFNRGEC
notes: Variable regions of MA-I on human IgG1 and human Ckappa constant regions
- EC50 (human IL-11 [1]): 0.0226 mg/L

B2: chimeric antibody CA-II (antibody, human IgG1, kappa, L234A L235A)
heavy: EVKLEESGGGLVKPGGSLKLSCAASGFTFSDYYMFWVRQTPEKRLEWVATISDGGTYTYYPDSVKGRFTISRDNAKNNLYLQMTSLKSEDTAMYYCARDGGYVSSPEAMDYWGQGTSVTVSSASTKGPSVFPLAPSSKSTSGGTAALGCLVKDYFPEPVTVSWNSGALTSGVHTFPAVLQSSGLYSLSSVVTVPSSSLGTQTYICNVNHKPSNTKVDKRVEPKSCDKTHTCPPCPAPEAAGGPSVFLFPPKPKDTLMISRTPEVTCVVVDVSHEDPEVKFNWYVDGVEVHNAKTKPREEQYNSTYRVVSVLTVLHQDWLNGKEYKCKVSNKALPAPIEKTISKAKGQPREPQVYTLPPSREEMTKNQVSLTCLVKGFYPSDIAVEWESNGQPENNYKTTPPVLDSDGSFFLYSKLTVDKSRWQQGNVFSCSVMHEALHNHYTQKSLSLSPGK
light: B1 light with P96W
notes: Variable regions of MA-II on human IgG1 and human Ckappa constant regions
- EC50 (human IL-11 [1]): 0.0464 mg/L

B3: murine antibody molecule MA-I (mouse IgG1 / mouse Ckappa) (antibody)
heavy: EVKLEESGGGLVKPGGSLKLSCAASGFTFSDYYMFWVRQTPEKRLEWVATISDGGTYTYYPDSVKGRFTISRDNAKNNLYLQMTSLKSEDTAMYYCARDGGYVSSPEAMDYWGQGTSVTVSSAKTTPPSVYPLAPGSAAQTNSMVTLGCLVKGYFPEPVTVTWNSGSLSSGVHTFPAVLQSDLYTLSSSVTVPSSTWPSETVTCNVAHPASSTKVDKKIVPRDCGCKPCICTVPEVSSVFIFPPKPKDVLTITLTPKVTCVVVDISKDDPEVQFSWFVDDVEVHTAQTQPREEQFNSTFRSVSELPIMHQDWLNGKEFKCRVNSAAFPAPIEKTISKTKGRPKAPQVYTIPPPKEQMAKDKVSLTCMITDFFPEDITVEWQWNGQPAENYKNTQPIMDTDGSYFVYSKLNVQKSNWEAGNTFTCSVLHEGLHNHHTEKSLSHSPG
light: DIVLTQSTSSLSASLGDRVTISCRASQDISNYLNWYQQKPDGTVKLLIYYTSRLHSGVPSRFSGSGSGTDYSLTISNLEQEDIATYFCQQGNTLPPTFGGGTKLEIKADAAPTVSIFPPSSEQLTSGGASVVCFLNNFYPKDINVKWKIDGSERQNGVLNSWTDQDSKDSTYSMSSTLTLTKDEYERHNSYTCEATHKTSTSPIVKSFNRNEC
notes: also called murine anti-IL-11 monoclonal antibody MA-I
- IC50 (IL-11-Fc antigen): 0.331 mg/L
- IC50 (IL-11-mFc ligand protein [2]): 3.3 mg/L
- EC50 (human IL-11 [3]): 0.00341 mg/L
- IC50 of inhibition of TIMP-1 secretion by MRC-5 cells stimulated with IL-11-mFc (IL-11-mFc ligand protein [4]): 0.453 mg/L

B4: murine antibody molecule MA-II (mouse IgG1 / mouse Ckappa) (antibody)
heavy: B3 heavy
light: B3 light with P96W
notes: also called murine anti-IL-11 monoclonal antibody MA-II
- IC50 (IL-11-Fc antigen): 0.378 mg/L
- IC50 (IL-11-mFc ligand protein [2]): 11.1 mg/L
- EC50 (human IL-11 [3]): 0.00372 mg/L
- IC50 of inhibition of TIMP-1 secretion by MRC-5 cells stimulated with IL-11-mFc (IL-11-mFc ligand protein [4]): 0.475 mg/L

B5: murine antibody molecule MA-IV (mouse IgG1 / mouse Ckappa) (antibody, V domains shown)
VH: EVQLEESGGGLVKPGGSLKLSCVASGFTFSDYYMFWVRQTPEKRLEWVATISDGGSYSYYPDSVKGRFTISRDNAKNNLYLQMSSLRSEDTAMYYCARDGGYISSPEAMDYWGQGTSVTVSS
VL: DIVLTQSTSSLSASLGDRVTISCRASQDISNYLNWYQQKPDGTVKLLIYYTSRLHSGVPSRFSGSGSGTDYSLTISNLEQEDIATYFCQQGNTLPPTFGGGTKLEIKA
notes: also called murine anti-IL-11 monoclonal antibody MA-IV
- IC50 (IL-11-Fc antigen): 0.778 mg/L
- IC50 (IL-11-mFc ligand protein [2]): 59.1 mg/L
- EC50 (human IL-11 [3]): 0.00425 mg/L
- IC50 of inhibition of TIMP-1 secretion by MRC-5 cells stimulated with IL-11-mFc (IL-11-mFc ligand protein [4]): 4.6 mg/L

B6: humanized antibody molecule HA-I-C (antibody, human IgG1, kappa, L234A L235A, V domains shown)
VH: QVQLVESGGGLVKPGGSLRLSCAASGFTFSDYYMFWVRQAPGKGLEWVATISDGGTYTYYPDSVKGRFTISRDNAKNSLYLQMNSLRAEDTAVYYCARDGGYVSSPEAMDYWGQGTLVTVSS
VL: DIVLTQSPSSLSASVGDRVTITCRASQDISNYLNWYQQKPGKAVKLLIYYTSRLHSGVPSRFSGSGSGTDYTFTISSLQPEDIATYFCQQGNTLPPTFGGGTKVEIKR
- IC50, reporter gene (BaF/3-GP130-STAT3-Luc cells stimulated with IL-11 protein, luciferase) (human IL-11 [5]): 0.152 mg/L
- IC50 of inhibition of TIMP-1 secretion by MRC-5 cells stimulated with IL-11-mFc (IL-11-mFc ligand protein [6]): 0.343 mg/L
- IC50 (IL-11-mFc ligand protein [7]): 4.87 mg/L
- IC50 (IL-11-mFc ligand protein [8]): 46.2 mg/L
- EC50 (human IL-11 [1]): 0.0252 mg/L

B7: humanized antibody molecule HA-II-B (antibody, human IgG1, kappa, L234A L235A, V domains shown)
VH: B6 VH
VL: B6 VL with V44P, F87Y, P96W
- EC50 (human IL-11 [1]): 0.0883 mg/L

B8: humanized antibody molecule HA-I-B (antibody, human IgG1, kappa, L234A L235A, V domains shown)
VH: B6 VH with A49S
VL: B6 VL with V44P, F87Y
- IC50, reporter gene (BaF/3-GP130-STAT3-Luc cells stimulated with IL-11 protein, luciferase) (human IL-11 [5]): 0.103 mg/L
- IC50 of inhibition of TIMP-1 secretion by MRC-5 cells stimulated with IL-11-mFc (IL-11-mFc ligand protein [6]): 0.19 mg/L
- IC50 (IL-11-mFc ligand protein [7]): 3.58 mg/L
- IC50 (IL-11-mFc ligand protein [8]): 39.6 mg/L
- EC50 (human IL-11 [1]): 0.0232 mg/L

B9: humanized antibody molecule HA-II-D (antibody, human IgG1, kappa, L234A L235A, V domains shown)
VH: B6 VH with V93M, L117S
VL: B6 VL with K42G, A43T, P96W
- EC50 (human IL-11 [1]): 0.0585 mg/L

B10: humanized antibody molecule HA-I-D (antibody, human IgG1, kappa, L234A L235A, V domains shown)
VH: B6 VH with V93M, L117S
VL: B6 VL with K42G
- IC50, reporter gene (BaF/3-GP130-STAT3-Luc cells stimulated with IL-11 protein, luciferase) (human IL-11 [5]): 0.465 mg/L
- IC50 of inhibition of TIMP-1 secretion by MRC-5 cells stimulated with IL-11-mFc (IL-11-mFc ligand protein [6]): 0.657 mg/L
- IC50 (IL-11-mFc ligand protein [7]): 13.8 mg/L
- IC50 (IL-11-mFc ligand protein [8]): 128 mg/L
- EC50 (human IL-11 [1]): 0.0261 mg/L

B11: humanized antibody molecule HA-II-C (antibody, human IgG1, kappa, L234A L235A, V domains shown)
VH: B6 VH with A49S
VL: B6 VL with V44P, F87Y, P96W
- EC50 (human IL-11 [1]): 0.0849 mg/L

B12: humanized antibody molecule HA-I-A (antibody, human IgG1, kappa, L234A L235A, V domains shown)
VH: B6 VH
VL: B6 VL with V44P, Y71F, F87Y
notes: anti-IL-11 monoclonal antibody HA-I-A
- IC50, reporter gene (BaF/3-GP130-STAT3-Luc cells stimulated with IL-11 protein, luciferase) (human IL-11 [5]): 0.045 mg/L
- IC50 of inhibition of TIMP-1 secretion by MRC-5 cells stimulated with IL-11-mFc (IL-11-mFc ligand protein [6]): 0.101 mg/L
- IC50 (IL-11-mFc ligand protein [7]): 1.68 mg/L
- EC50 (cynomolgus monkey IL-11): 0.239 mg/L
- IC50 (IL-11-mFc ligand protein [8]): 23.5 mg/L
- EC50 (mouse IL-11): 0.0139 mg/L
- EC50 (human IL-11 [1]): 0.0204 mg/L
- EC50 (rat IL-11): 0.0179 mg/L
- EC50 (human IL-11 [9]): 0.0106 mg/L

B13: humanized antibody molecule HA-II-A (antibody, human IgG1, kappa, L234A L235A, V domains shown)
VH: B6 VH
VL: B6 VL with V44P, Y71F, F87Y, P96W
- EC50 (human IL-11 [1]): 0.102 mg/L

B14: murine antibody molecule MA-III (mouse IgG1 / mouse Ckappa) (antibody, V domains shown)
VH: EVKLEQSGAEVVKPGALVKMSCKASGYTFTSYWMHWVKQRPGQGLEWIGVIDPSDSYTTYNQKFKGKATLTVDTSSSTGYMQLSSLTSEDSAVYYCSQYGYDVNWYFDVWGAGTTVTVSS
VL: DIVMTQTTLSLPVSLGDQASISCRSSQSIVHSNGNTYLEWYLQKPGQSPKLLIYEVSNRFSGVPDRFSGSGSGTDFTLKISRVEAEDLGVYYCFQGSHVPWTFGGGTKLEIKA
notes: also called murine anti-IL-11 monoclonal antibody MA-III
- IC50 (IL-11-Fc antigen): 0.421 mg/L
- IC50 (IL-11-mFc ligand protein [2]): 19.1 mg/L
- EC50 (human IL-11 [3]): 0.00379 mg/L
- IC50 of inhibition of TIMP-1 secretion by MRC-5 cells stimulated with IL-11-mFc (IL-11-mFc ligand protein [4]): 1.36 mg/L

Source: EP4722243A1 (Beijing Dongfang Biotech Co. Ltd., dated 2026)
